Experiments:
[1] = molecular target: unlabeled HSET (full-length HSET with N-terminal 6x His tag, no EGFP) (human) (UniProt Q9BW19); test: fluorescence intensity analysis of moving particles (TIRF); first frame of moving EGFP-HSET (with unlabeled tubulin) or moving Cy5-tubulin (10 nM, with 10 nM unlabeled HSET) on GMPCPP-MTs compared with single molecules adhered to glass; BRB80 + 50 mM KCl with 0.5 mg/mL casein
[2] = molecular target: the molecule itself; test: single-molecule stepwise photobleaching (TIRF); single EGFP-tagged molecules adhered to a glass surface; photobleaching traces compared with EGFP-XMCAK, a known dimer; monomers to dimer

| Molecule | brightness of moving Cy5-tubulin particles (with HSET) over single Cy5-tubulin molecules [1] [fold] | stoichiometry N [2] |
| --- | --- | --- |
| Cy5-tubulin (bovine brain tubulin labeled with NHS-Cy5, 100% labeled) (from UniProt Q6B856 1-445) (complex) | 11.8 | – |
| EGFP-HSET (full-length HSET/KIFC1, human kinesin-14, with N-terminal 6x His tag and EGFP) (natural protein, UniProt Q9BW19 1-673, looked up, HSET/KIFC1, Homo sapiens kinesin-14, amino acids 1-673; No tag cleavage is described; also called full-length EGFP-HSET; pFASTBAC-HTa-EGFP-HSET; source: Sf9 cells (baculovirus), purified (Ni-NTA, size exclusion chromatography); not shown: His6, N-terminal, kept; EGFP, N-terminal, kept) MDPQRSPLLEVKGNIELKRPLIKAPSQLPLSGSRLKRRPDQMEDGLEPEKKRTRGLGATTKITTSHPRVPSLTTVPQTQGQTTAQKVSKKTGPRCSTAIATGLKNQKPVPAVPVQKSGTSGVPPMAGGKKPSKRPAWDLKGQLCDLNAELKRCRERTQTLDQENQQLQDQLRDAQQQVKALGTERTTLEGHLAKVQAQAEQGQQELKNLRACVLELEERLSTQEGLVQELQKKQVELQEERRGLMSQLEEKERRLQTSEAALSSSQAEVASLRQETVAQAALLTEREERLHGLEMERRRLHNQLQELKGNIRVFCRVRPVLPGEPTPPPGLLLFPSGPGGPSDPPTRLSLSRSDERRGTLSGAPAPPTRHDFSFDRVFPPGSGQDEVFEEIAMLVQSALDGYPVCIFAYGQTGSGKTFTMEGGPGGDPQLEGLIPRALRHLFSVAQELSGQGWTYSFVASYVEIYNETVRDLLATGTRKGQGGECEIRRAGPGSEELTVTNARYVPVSCEKEVDALLHLARQNRAVARTAQNERSSRSHSVFQLQISGEHSSRGLQCGAPLSLVDLAGSERLDPGLALGPGERERLRETQAINSSLSTLGLVIMALSNKESHVPYRNSKLTYLLQNSLGGSAKMLMFVNISPLEENVSESLNSLRFASKVNQCVIGTAQANRK | – | 2 |
| EGFP-HSET-DoubleTail (other, human, HSET/KIFC1, Homo sapiens kinesin-14, amino acids 1-307 (tail and stalk); flexible amino acid linker; HSET/KIFC1, Homo sapiens kinesin-14, amino acids 1-137 (second copy of the N-terminal tail in place of the motor domain); also called pET15b-HTa-EGFP-HSETDoubleTail; source: E. coli BL21DE3, purified (Ni-NTA, size exclusion chromatography); not shown: His6, N-terminal, kept; EGFP, N-terminal, kept) MDPQRSPLLEVKGNIELKRPLIKAPSQLPLSGSRLKRRPDQMEDGLEPEKKRTRGLGATTKITTSHPRVPSLTTVPQTQGQTTAQKVSKKTGPRCSTAIATGLKNQKPVPAVPVQKSGTSGVPPMAGGKKPSKRPAWDLKGQLCDLNAELKRCRERTQTLDQENQQLQDQLRDAQQQVKALGTERTTLEGHLAKVQAQAEQGQQELKNLRACVLELEERLSTQEGLVQELQKKQVELQEERRGLMSQLEEKERRLQTSEAALSSSQAEVASLRQETVAQAALLTEREERLHGLEMERRRLHNQLQELGGSGGSMDPQRSPLLEVKGNIELKRPLIKAPSQLPLSGSRLKRRPDQMEDGLEPEKKRTRGLGATTKITTSHPRVPSLTTVPQTQGQTTAQKVSKKTGPRCSTAIATGLKNQKPVPAVPVQKSGTSGVPPMAGGKKPSKRPAW | – | 2 |
| EGFP-HSETΔTail (domain or fragment, human, UniProt Q9BW19 139-673, looked up, HSET/KIFC1, Homo sapiens kinesin-14, amino acids 139-673 (stalk and motor, N-terminal tail deleted); also called pFASTBAC-HTa-EGFP-HSETΔTail; tailless HSET; source: Sf9 cells (baculovirus), purified (Ni-NTA, size exclusion chromatography); not shown: His6, N-terminal, kept; EGFP, N-terminal, kept) LKGQLCDLNAELKRCRERTQTLDQENQQLQDQLRDAQQQVKALGTERTTLEGHLAKVQAQAEQGQQELKNLRACVLELEERLSTQEGLVQELQKKQVELQEERRGLMSQLEEKERRLQTSEAALSSSQAEVASLRQETVAQAALLTEREERLHGLEMERRRLHNQLQELKGNIRVFCRVRPVLPGEPTPPPGLLLFPSGPGGPSDPPTRLSLSRSDERRGTLSGAPAPPTRHDFSFDRVFPPGSGQDEVFEEIAMLVQSALDGYPVCIFAYGQTGSGKTFTMEGGPGGDPQLEGLIPRALRHLFSVAQELSGQGWTYSFVASYVEIYNETVRDLLATGTRKGQGGECEIRRAGPGSEELTVTNARYVPVSCEKEVDALLHLARQNRAVARTAQNERSSRSHSVFQLQISGEHSSRGLQCGAPLSLVDLAGSERLDPGLALGPGERERLRETQAINSSLSTLGLVIMALSNKESHVPYRNSKLTYLLQNSLGGSAKMLMFVNISPLEENVSESLNSLRFASKVNQCVIGTAQANRK | – | 2 |
| EGFP-HSETΔMotor (domain or fragment, human, UniProt Q9BW19 1-304, looked up, HSET/KIFC1, Homo sapiens kinesin-14, amino acids 1-304 (tail and stalk, motor domain deleted); also called pET15b-HTa-EGFP-HSETΔMotor; source: E. coli BL21DE3, purified (Ni-NTA, size exclusion chromatography); not shown: His6, N-terminal, kept; EGFP, N-terminal, kept) MDPQRSPLLEVKGNIELKRPLIKAPSQLPLSGSRLKRRPDQMEDGLEPEKKRTRGLGATTKITTSHPRVPSLTTVPQTQGQTTAQKVSKKTGPRCSTAIATGLKNQKPVPAVPVQKSGTSGVPPMAGGKKPSKRPAWDLKGQLCDLNAELKRCRERTQTLDQENQQLQDQLRDAQQQVKALGTERTTLEGHLAKVQAQAEQGQQELKNLRACVLELEERLSTQEGLVQELQKKQVELQEERRGLMSQLEEKERRLQTSEAALSSSQAEVASLRQETVAQAALLTEREERLHGLEMERRRLHNQL | – | 2 |

Reference: PMC6037785, “Microtubule minus-end aster organization is driven by processive HSET-tubulin clusters” (Nature Communications, 2018)
